Experimental findings from the supplement of paper PMC9170038 are described below.

The subject of this data set is MS2 coat protein. Description: apparent KD of MS2 coat protein; designed switch direction (-1 OFF switch, 1 ON switch): -1; higher = weaker reporter binding. The method in brief: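 Three titration conditions were used: no input, 200 uM small-molecule ligand, and an oligonucleotide input. In each, SNAP-549-labelled MS2 coat protein was raised from 0.7 or 1.5 nM, doubling, to 3 µM over designed RNA switches transcribed on Illumina chips by stalled E. coli RNA polymerase. Curve fits of normalised cluster fluorescence gave values whose per-design median over clusters is the apparent KD.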

Setting [1] is: input ligand: microRNA oligo, concentration not stated.
The mark [2] stands for this setting: Eterna round: R95, input ligand: microRNA oligo, concentration not stated.
Where [3] appears, read: Eterna round: R95, input ligand: FMN 200 uM.
The mark [4] stands for this setting: Eterna round: R95, input ligand: none.

With “AGCUAGUCAGGAUAUACGAAAAUGUCAGAAGCUGAGAAGGGACAUGAGGAUCACCCAUGUAGAAGGGACUAGCA [Diamond 37] (Eterna round: R96, puzzle: Exclusion 2)”, under setting [1], the “apparent KD of MS2 coat protein” value was determined as 48.7 nM.

As for “ACGAUGUUUGGAGGAUAUACAUGAGGAUCACCCAUGUGCGACCGAGUCCGCACUUCACCUCAGUGGUAGAAGGCCGAACAUCGA [Eternabot solution 12] (Eterna round: R96, puzzle: Exclusion NG 2)”, the “apparent KD of MS2 coat protein” value runs as follows: (input ligand: FMN 200 uM) 97.9 nM; under setting [1], 545 nM; (input ligand: none) 255 nM.

Turning to “UUUUUGUCAGGAUAUGACUAGAUGCACGUUAGUGUGUUUACUUAGAAGGGACAUGAGGAUCACCCAUGUAUUCC [Bring Us a Shrubbery-14] (puzzle: Exclusion 4)”, under setting [2], the “apparent KD of MS2 coat protein” value amounted to 26.4 nM.

Consider “UUUUAAUAUGAAGGAUAUACUUAACAUGAGGAUCACCCAUGUGGUGUUGUGAGUGAGUGAGUUUAGUAGAAGGUCAAGUAUUUU [JMF's solution 47] (Eterna round: R96, puzzle: Exclusion NG 2)”, for which the “apparent KD of MS2 coat protein” value by setting is: (input ligand: FMN 200 uM) 703 nM; under setting [1], 559 nM; (input ligand: none) 428 nM.

Turning to “UCUUGUUGUCCGUGAGAAGACAUGAGGAUCACCCAUGUUAGUUUGAUUAUGAUGUGUAAGUUUGUUGUUCGUUUUAU [JR_STOV1_v2_Sub072] (Eterna round: R97, puzzle: Sensor, turn-off variant 1)”, the “apparent KD of MS2 coat protein” value was 53.1 nM (input ligand: FMN 200 uM) and 63.1 nM (input ligand: none).

In the case of “AACUCACAUGAGGAUCACCCAUGUGAGGAUAUGGAUUCGCUGGCCGUAGCCAGUGGAUCCAGAAGGCGCGUGAU [JL-ex1-4.26] (Eterna round: R97, puzzle: Exclusion 1)”, the “apparent KD of MS2 coat protein” value was 56.7 nM (input ligand: FMN 200 uM) and 56.9 nM (input ligand: none).

With “CUUUUGUGAGGAUAUUAGUAGUAAAUAAAUAAAAUUACUACUGAGAAGGCACAUGAGGAUCACCCAUGUUUCUC [salish99_ex4_r3_065] (puzzle: Exclusion 4)”, under setting [2], the “apparent KD of MS2 coat protein” value was found to be 31.9 nM.

For the sequence “AUAAUAUAUGUAGGAUAUCUGCACGUGUAGUGCAGAGAAGGACAUGAGGAUCACCCAUGUAAUUAAGAUCAAUUAUUAAAUUAU [ENG1/4-B3] (Eterna round: R96, puzzle: Exclusion NG 1)”, the “apparent KD of MS2 coat protein” value by setting is: (input ligand: FMN 200 uM) 83.8 nM; under setting [1], 35.5 nM; (input ligand: none) 38.1 nM.

Turning to “UGAGUGGUGCGAGGAUAUACAUGAGGAUCACCCAUGUAAACGUGUGAGGCAAAGCCUCACACGAUGUAGAAGGCGCACUACUCU [Mat - Exclusion NG 2 - Mod of JL - D14] (Eterna round: R96, puzzle: Exclusion NG 2)”, the “apparent KD of MS2 coat protein” value by setting is: (input ligand: FMN 200 uM) 24.7 nM; under setting [1], 12.4 nM; (input ligand: none) 19.5 nM.

With “UCUGGUCGAGGAUAUACAUGAGGAUCACCCAUGUAGAUCAACCAGCUUCGGCUGGAAUGUAGAAGGCGACCAGA [E3/5-A6] (Eterna round: R97, puzzle: Exclusion 3)”, the “apparent KD of MS2 coat protein” value is, setting by setting: (input ligand: FMN 200 uM) 149 nM; (input ligand: none) 19.8 nM.

Regarding “AUAUCCAGAGGAUAUCCGCACGGACACAUGAGGAUCACCCAUGUUUUCAUGAACGUUGCCGGAGAAGGCUGAGGAA [Eternabot (Original) Solution 10] (Eterna round: R97, puzzle: Exclusion 5)”, the “apparent KD of MS2 coat protein” value is 79.7 nM (input ligand: FMN 200 uM) and 69.7 nM (input ligand: none).

For “AUAAAUGAGGAGGAUAUCGAAUCGGAAACGAUUCGAGAAGGCCUAACAUGAGGAUCACCCAUGUUCCUUAAAUA [Mat - Exclusion 6 - Eli Mod - D64] (puzzle: Exclusion 6)”, the “apparent KD of MS2 coat protein” value under setting [2] is 25.3 nM.

On to “UUUUUAUAUGAAGGAUAUACUUAACAUGAGGAUCACCCAUGUGGUGUUGUGAGUGAGUGAGUUUAGUAGAAGGUCAAAGAUUUU [JMF's solution 57] (Eterna round: R96, puzzle: Exclusion NG 2)”, for which the “apparent KD of MS2 coat protein” value was determined as 1550 nM (input ligand: FMN 200 uM), 304 nM under setting [1] and 295 nM (input ligand: none).

For “AACACAUGAGGAUAUACAUGAGGAUCACCCAUGUUGUCACUACACCCGGGUGCCUGGUGUAGAAGGCAUGAAGA [Eternabot (Original) Solution 30] (Eterna round: R97, puzzle: Exclusion 3)”, the “apparent KD of MS2 coat protein” value (input ligand: FMN 200 uM) is 71.2 nM and the “apparent KD of MS2 coat protein” value (input ligand: none) came to 34.1 nM.

“CGAUGUUAUGUCAGGAUAUGCGUUGCGAAAGCAAUGCAGAAGGGACAUGAGGAUCACCCAUGUCCUAACCAUCG [Omei A 5] (puzzle: Brourd's mod of Exclusion 4)”: under setting [2], the “apparent KD of MS2 coat protein” value was 12.7 nM.

Consider “UGAUCCGGUGUGAGGAUAUUUAACCUCAUAUAGGUAAAGAAGGCACAUGAGGAUCACCCAUGUCGAGGCCCGAU [Eternabot (L2) Solution 74] (Eterna round: R97, puzzle: Brourd's mod of Exclusion 4)”, for which the “apparent KD of MS2 coat protein” value is, setting by setting: (input ligand: FMN 200 uM) 209 nM; (input ligand: none) 168 nM.

With “AAUUAUAGAGGAUAUACAGAUUAAUACAUGAGGAUCACCCAUGUUCUUCAAUGUAUAUAUGUAGAAGGCUAAGGAA [JR_Ex5_Sub091] (Eterna round: R97, puzzle: Exclusion 5)”, the “apparent KD of MS2 coat protein” value (input ligand: FMN 200 uM) was 181 nM and the “apparent KD of MS2 coat protein” value (input ligand: none) was found to be 238 nM.

With “GAGUUACAUGAGGAUCACCCAUGUGAGGAUAUGAGUCAGUCACGGUGACGUGGCUGACUCAGAAGGCACUAUGG [Mat - Exclusion 1 - JL Mod - D43] (Eterna round: R97, puzzle: Exclusion 1)”, the “apparent KD of MS2 coat protein” value was 52.8 nM (input ligand: FMN 200 uM) and 233 nM (input ligand: none).

With “GGUUGGCGAGGAUAUACAUGAGGAUCACCCAUGUGAGAGAAAAAAGUGAGGAACAAAAGUAGAAGGCGCUGACG [salish99_ex3_r3_033] (puzzle: Exclusion 3)”, the “apparent KD of MS2 coat protein” value under setting [3] is 184 nM, the “apparent KD of MS2 coat protein” value under setting [2] was determined as 48.5 nM and the “apparent KD of MS2 coat protein” value under setting [4] was 58.2 nM.

On to “UCUUAUUGAGGAUAUACAUUAAUUUACAUGAGGAUCACCCAUGUUCUUCAAUGUAUAUAUGUAGAAGGCAGAAGAU [Mat - Exclusion 5 - JL Mod - D29] (Eterna round: R97, puzzle: Exclusion 5)”, for which the “apparent KD of MS2 coat protein” value by setting is: (input ligand: FMN 200 uM) 41.4 nM; (input ligand: none) 18.1 nM.

As for “CCAUCGUGUGUGAGGAUAUGCUGGACCUUGGUUCAGCAGAAGGCACAUGAGGAUCACCCAUGUGAAGACGGUGG [Mat - Exclusion 4 - JL Mod - D89] (puzzle: Brourd's mod of Exclusion 4)”, the “apparent KD of MS2 coat protein” value reads like this: under setting [3], 51.4 nM; under setting [2], 24.6 nM; under setting [4], 18.1 nM.

With “GUAACAUUAAAGGCUCGUGACAUGAGGAUCACCCAUGUAUGGACCGUUCCACUUACCGACAAGCUGUGAUCGUCCUU [Eternabot (L2) Solution 22] (Eterna round: R97, puzzle: Sensor, turn-off variant 1)”, the “apparent KD of MS2 coat protein” value is 40.8 nM (input ligand: FMN 200 uM) and 42 nM (input ligand: none).

Consider “UAUUAGCAAGCGAGAUCCCACAUGAGGAUCACCCAUGUGCUCGUCUGCUCCAGAAUUACUGGAGCAGCUCGUCUUAU [Winner reversed engineered 19] (Eterna round: R97, puzzle: Sensor, turn-off variant 1)”, for which the “apparent KD of MS2 coat protein” value by setting is: (input ligand: FMN 200 uM) 21.7 nM; (input ligand: none) 22.4 nM.

“GUAGAGUCAGGAUAUACAAGAUCGAAAGAUCGGCGGUCCAUACAUGAGGAUCACCCAUGUAGAAGGGACUCUAC [Eli x2 4.005] (Eterna round: R97, puzzle: Exclusion 2)”: the “apparent KD of MS2 coat protein” value was 619 nM (input ligand: FMN 200 uM) and 30.2 nM (input ligand: none).

In the case of “UAUAUAUAGUAAGGAUAUGUAUAUAUUUUGUAAACAGAAGGUACUGACAUGAGGAUCACCCAUGUUUUAGUGUGGGCAUGUAGA [JMF's solution 66] (Eterna round: R96, puzzle: Exclusion NG 1)”, under setting [1], the “apparent KD of MS2 coat protein” value is 60.9 nM.

As to “GUGUAGUGAGGAUAUACAUGAGGAUCACCCAUGUGAAUAAGAUAGAAUAAGAUAAAGUGUAGAAGGCAUAGUGU [Excluse me!!! 21 - Jieux - Exclusion 3] (puzzle: Exclusion 3)”, under setting [2], the “apparent KD of MS2 coat protein” value was 39.3 nM.

As to “GGUUGGCGAGGAUAUACAUGAGGAUCACCCAUGUGACAGAAAAAAGUGAGGAAGAAAAGUAGAAGGCGCUGACG [salish99_ex3_r3_019] (puzzle: Exclusion 3)”, the “apparent KD of MS2 coat protein” value came to 587 nM under setting [3], 44.9 nM under setting [2] and 37.1 nM under setting [4].

“AUUUUGUCAGGAUAUGAUUAGUAGGAUGAGAGUGCUACUACUUAGAAGGGACAUGAGGAUCACCCAUGUAUUCC [Bring Us a Shrubbery-07] (puzzle: Exclusion 4)”: the “apparent KD of MS2 coat protein” value under setting [2] stood at 14.7 nM.

Take “AUAGAGUCAGGAUAUACAAGAUGAAAGAUAGAUAGAAGAAAGUAGAAGGGACAUGAGGAUCACCCAUGUAAGAA [JR_Exclu4_Sub051] (puzzle: Exclusion 4)”: the “apparent KD of MS2 coat protein” value was 34.9 nM under setting [3], 31.7 nM under setting [2] and 36.2 nM under setting [4].

Consider “CUGGUCCGAGGAUAUAUUUUGUGAAACAUGAGGAUCACCCAUGUAAUAAAAUGGAAAUAAAUAGAAGGCGGACUAG [Mat - Exclusion 5 - JL mod - D42] (puzzle: Exclusion 5)”, for which the “apparent KD of MS2 coat protein” value under setting [3] worked out at 25.2 nM, the “apparent KD of MS2 coat protein” value under setting [2] is 20.8 nM and the “apparent KD of MS2 coat protein” value under setting [4] was 24.2 nM.

As to “CCAUUAUAAGGAUAUACAUGAGGAUCACCCAUGUACAGGUUAGUUGUACGUACACCGAGUAGAAGGUAUAGAGG [Eternabot (L1) Solution 21] (Eterna round: R97, puzzle: Exclusion 3)”, the “apparent KD of MS2 coat protein” value (input ligand: FMN 200 uM) was found to be 62.5 nM and the “apparent KD of MS2 coat protein” value (input ligand: none) was determined as 63.4 nM.
